ChEMBL document CHEMBL5252635, “The Mycobacterium tuberculosis mycothiol S-transferase is divalent metal-dependent for mycothiol binding and transfer” (2023)

Assays:
[1] = substrate: CC(=O)N[C@@H](CS)C(=O)N[C@H]1[C@@H](O[C@@H]2[C@H](O)[C@H](O)[C@@H](O)[C@H](O)[C@H]2O)O[C@H](CO)[C@@H](O)[C@@H]1O; conditions: Mycobacterium tuberculosis
Description: Binding affinity to Mycobacterium tuberculosis MST assessed as Km by differential scanning fluorimetry method

[2] = substrate: CC(=O)N[C@@H](CS)C(=O)N[C@H]1[C@@H](O[C@@H]2[C@H](O)[C@H](O)[C@@H](O)[C@H](O)[C@H]2O)O[C@H](CO)[C@@H](O)[C@@H]1O; conditions: Mycobacterium tuberculosis; remark: listed apart in the source
Description: Binding affinity to Mycobacterium tuberculosis MST assessed as Km in presence of zinc

B1: Conserved protein (Mycobacterium tuberculosis), O53728 (protein)
chain: MASTDAAAQELLRDAFTRLIEHVDELTDGLTDQLACYRPTPSANSIAWLLWHSARVQDIQVAHVAGVEEVWTRDGWVDRFGLDLPRHDTGYGHRPEDVAKVRAPADLLSGYYHAVHKLTLEYIAGMTADELSRVVDTSWNPPVTVSARLVSIVDDCAQHLGQAAYLRGIAR
Km [1]: 18.4 µM | Km [2]: 9.8 µM
